Test results taken from article PMC10462110 (bioRxiv, 2023).
Where a chain is given by its changes, count along the chain named. Read-outs that look alike come from different tables or passages of the source. Where no end group is shown, it is not given here. [ ]: non-standard residue; d: D form. pS = N[C@@H](COP(=O)(O)O)C(=O)O

What was measured:
[1] = target: GFP-tagged tauC3 S416E, doxycycline-inducible in HEK293 Flp-In T-REx cells; assay: co-IP
[2] = target: Recombinant human CHIP (C-terminus of Hsc70 interacting protein; STUB1) (human) (UniProt Q9UNE7); assay: ELISA
CHIP [3] = target: CHIP (UniProt Q9UNE7); assay: differential scanning fluorimetry of CHIP; details: reference: WT peptide; sites S416
CHIP [4] = target: CHIP (UniProt Q9UNE7); assay: co-IP with anti-Tau-5, CHIP blot; details: reference: GFP-tauC3; sites S416
[5] = target: Recombinant human CHIP (C-terminus of Hsc70 interacting protein; STUB1) (human) (UniProt Q9UNE7); assay: ELISA; remark: listed apart in the source
[6] = target: CHIP, NanoBiT fusion expressed in HEK293T cells (UniProt Q9UNE7); assay: split reporter
[7] = target: T1, Recombinant human CHIP (C-terminus of Hsc70 interacting protein; STUB1) (human, UniProt Q9UNE7 1-303); assay: fluorescence polarisation
T1 sequence (looked up): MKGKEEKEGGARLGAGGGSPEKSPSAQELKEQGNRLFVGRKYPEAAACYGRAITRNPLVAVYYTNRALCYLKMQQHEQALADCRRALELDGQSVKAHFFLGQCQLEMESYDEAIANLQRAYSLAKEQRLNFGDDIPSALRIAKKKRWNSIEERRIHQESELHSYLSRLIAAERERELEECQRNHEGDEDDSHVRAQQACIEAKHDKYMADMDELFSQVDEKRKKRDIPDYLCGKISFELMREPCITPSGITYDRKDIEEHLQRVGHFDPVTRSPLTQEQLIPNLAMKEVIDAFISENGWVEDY

CHIP D134A [8] = target: T2, CHIP D134A (human, UniProt Q9UNE7 1-303, D134A); assay: fluorescence polarisation
T2 sequence (looked up): T1 sequence (looked up) with D134A

CHIP F131A = target: T3, CHIP F131A (human, UniProt Q9UNE7 1-303, F131A); assay: differential scanning fluorimetry
T3 sequence (looked up): T1 sequence (looked up) with F131A

CHIP D134A [9] = target: T2, CHIP D134A; assay: differential scanning fluorimetry

Molecule: endogenous CHIP (from UniProt Q9UNE7 1-303) (enzyme)
- relative amount of CHIP bound (normalized to tauC3) [1]: 0.55

Molecule: natively phosphorylated tauC3 (p.tauC3) from Sf9 insect cells (domain or fragment)
- Kd [2]: 0.7 µM

Molecule: tau (MAPT); tauC3 proteoform C-terminal 10-mer ending at D421 (from UniProt P10636-8) S416E peptide (…)
- other: CHIP apparent Tm (CHIP [3]): weaker; reference 48.81 ± 0.11

Molecule: tau (MAPT); tauC3 proteoform tauC3, C-terminus at D421 (from UniProt P10636-8) GFP-tauC3 S416E
- other: relative CHIP bound, normalised to tauC3 (CHIP [4]): 0.55

Molecule: tauC3 (unmodified, produced from E. coli) (domain or fragment)
- Kd [2]: 0.19 µM
- Kd [5]: 0.09 µM

Molecule: tauC3 S416E (purified protein) (domain or fragment)
- Kd [5]: 0.78 µM

Molecule: tauC3, NanoBiT fusion expressed in HEK293T cells (domain or fragment)
- fold binding over FL tau [6]: 5 fold

Molecule: SSTG[pS]IDMVD [tauC3 pS416 10-mer peptide]
- Ki [7]: 1.01 ± 0.99 µM
- Ki (CHIP D134A [8]): 1.84 ± 0.23 µM

Molecule: Ac-SSTGSIDMVD-OH [acetylated 10-mer peptide corresponding to the tauC3 C-terminus (Ac-SSTGSIDMVD-OH)]
- Ki [7]: 0.15 ± 0.02 µM
- Ki (CHIP D134A [8]): 5.57 ± 0.34 µM
- binding result (CHIP F131A): binds

Molecule: Ac-SSTGEIDMVD [pS416 phosphomimetic 10-mer tauC3 peptide (SSTGEIDMVD)]
- Ki [7]: 2.41 ± 0.33 µM
- binding result (CHIP D134A [9]): binds
- binding result (CHIP F131A): binds
